Bridges are numbered along the chain shown (N, C = ends). Primed or numbered codes have the meaning given here. Where no end group is shown, it is not given here. Side-chain parts run from the residue outwards. [ ]: non-standard residue; d: D form. maleimide = maleimide group on activated PEG, it reacts with the Cys thiol (Michael addition) to give a thioether linkage; PEG 40 kDa″ = polyethylene glycol of 40 kDa covalently attached to the side chain; PEG 40 kDa = PEG (40 kDa) covalently attached to Cys; Aib = CC(C)(N)C(=O)O
Assays:
Test in all cases: cell-based or functional assay
GIP receptor [1] = target: T1, GIP receptor (UniProt P48546 22-466)
T1 sequence (looked up): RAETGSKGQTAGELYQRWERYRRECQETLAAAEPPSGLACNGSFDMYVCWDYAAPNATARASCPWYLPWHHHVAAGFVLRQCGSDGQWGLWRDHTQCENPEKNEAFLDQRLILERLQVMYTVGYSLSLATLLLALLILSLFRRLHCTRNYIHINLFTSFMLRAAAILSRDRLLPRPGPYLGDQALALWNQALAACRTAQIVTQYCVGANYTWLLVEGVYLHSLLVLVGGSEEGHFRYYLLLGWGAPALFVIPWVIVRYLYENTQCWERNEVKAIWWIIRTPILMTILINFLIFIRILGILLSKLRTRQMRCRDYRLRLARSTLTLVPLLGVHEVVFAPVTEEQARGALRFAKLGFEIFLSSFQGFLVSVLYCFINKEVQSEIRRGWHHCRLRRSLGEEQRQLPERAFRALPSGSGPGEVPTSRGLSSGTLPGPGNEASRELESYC

GLP-1 receptor [2] = target: GLP-1 receptor (UniProt P43220 24-463, limits assumed)
glucagon receptor = glucagon receptor (UniProt P47871 26-477, limits assumed)
glucagon receptor, sequence (P47871 26-477 limits assumed): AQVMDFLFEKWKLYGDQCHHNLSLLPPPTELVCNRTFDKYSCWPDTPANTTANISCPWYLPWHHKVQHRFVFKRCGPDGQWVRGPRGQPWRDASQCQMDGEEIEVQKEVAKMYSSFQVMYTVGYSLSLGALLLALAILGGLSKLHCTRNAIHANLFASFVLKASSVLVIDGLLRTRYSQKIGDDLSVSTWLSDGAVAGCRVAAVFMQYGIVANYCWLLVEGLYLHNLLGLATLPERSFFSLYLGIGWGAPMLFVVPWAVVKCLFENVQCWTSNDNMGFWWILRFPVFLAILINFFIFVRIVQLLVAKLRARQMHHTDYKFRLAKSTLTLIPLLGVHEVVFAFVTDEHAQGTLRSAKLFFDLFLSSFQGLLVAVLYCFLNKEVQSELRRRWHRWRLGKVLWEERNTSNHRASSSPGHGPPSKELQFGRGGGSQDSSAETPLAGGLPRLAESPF

GLP-1 receptor [3] = target: GLP-1 receptor (UniProt P43220 24-463, limits assumed); remark: listed apart in the source
GIP receptor [4] = target: T2, GIP receptor (UniProt P48546 22-466); remark: listed apart in the source
T2 sequence (looked up): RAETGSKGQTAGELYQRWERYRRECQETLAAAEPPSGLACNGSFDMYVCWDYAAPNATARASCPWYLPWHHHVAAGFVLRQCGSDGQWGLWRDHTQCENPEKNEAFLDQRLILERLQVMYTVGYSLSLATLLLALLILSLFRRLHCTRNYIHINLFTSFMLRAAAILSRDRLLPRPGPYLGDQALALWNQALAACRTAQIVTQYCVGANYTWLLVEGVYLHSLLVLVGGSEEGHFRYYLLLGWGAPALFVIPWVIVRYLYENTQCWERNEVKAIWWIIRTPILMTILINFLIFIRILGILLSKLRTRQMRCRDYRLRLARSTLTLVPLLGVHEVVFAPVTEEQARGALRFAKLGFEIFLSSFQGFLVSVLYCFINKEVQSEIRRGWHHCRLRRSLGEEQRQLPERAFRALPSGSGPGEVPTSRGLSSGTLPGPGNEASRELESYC

Binder	EC50, nM; GIP Receptor (GIP receptor [1]) [nM]	EC50, nM; GLP-1 Receptor (GLP-1 receptor [2]) [nM]	EC50 (glucagon receptor) [nM]	relative activity (glucagon receptor) [%]	EC50 (GLP-1 receptor [3]) [nM]	relative activity (GLP-1 receptor [3]) [%]	EC50 (GIP receptor [4]) [nM]	relative activity (GIP receptor [4]) [%]
YXEGTFTSDYSIYLDKQAAXEFVNWLLAGGPSSGAPPPSKC (C-terminal amide; acylation at position 40 of each monomer, no spacer; monomers linked via a PEG at C-terminal Cys residues) [mt-376]	0.0068	0.0106						
YXEGTFTSDYSIYLDKQAAXEFVNWLLAGGPSSGAPPPSKC (C-terminal amide; acylation at position 40 of each monomer, no spacer; monomers linked via a PEG at C-terminal Cys residues) [mt-377]	0.0031	0.0076						
Y[Aib]QGTFTSDYSIYLDEQAAKEFVNWLLAGGPSSGAPPPS-NH2 (N-terminus assumed; SMILES CC[C@H](C)[C@H](NC(=O)[C@H](CO)NC(=O)[C@H](Cc1ccc(O)cc1)NC(=O)[C@H](CC(=O)O)NC(=O)[C@H](CO)NC(=O)[C@@H](NC(=O)[C@H](Cc1ccccc1)NC(=O)[C@@H](NC(=O)CNC(=O)[C@H](CCC(N)=O)NC(=O)C(C)(C)NC(=O)[C@@H](N)Cc1ccc(O)cc1)[C@@H](C)O)[C@@H](C)O)C(=O)N[C@@H](Cc1ccc(O)cc1)C(=O)N[C@@H](CC(C)C)C(=O)N[C@@H](CC(=O)O)C(=O)N[C@@H](CCC(=O)O)C(=O)N[C@@H](CCC(N)=O)C(=O)N[C@@H](C)C(=O)N[C@@H](C)C(=O)N[C@@H](CCCCN)C(=O)N[C@@H](CCC(=O)O)C(=O)N[C@@H](Cc1ccccc1)C(=O)N[C@H](C(=O)N[C@@H](CC(N)=O)C(=O)N[C@@H](Cc1c[nH]c2ccccc12)C(=O)N[C@@H](CC(C)C)C(=O)N[C@@H](CC(C)C)C(=O)N[C@@H](C)C(=O)NCC(=O)NCC(=O)N1CCC[C@H]1C(=O)N[C@@H](CO)C(=O)N[C@@H](CO)C(=O)NCC(=O)N[C@@H](C)C(=O)N1CCC[C@H]1C(=O)N1CCC[C@H]1C(=O)N1CCC[C@H]1C(=O)N[C@@H](CO)C(N)=O)C(C)C) [mt-191]			1.46	4.32	0.011	209	0.189	16.9
Y[Aib]QGTFTSEYSKYLDEQAAKEFVNWLLAGGPSSGAPPPSC-NH2 (lactam 9-12, 16-20; not fully specified) [mt-209]			4.66	0.9	2.34	1.33	1.05	1.42
Y[Aib]QGTFTSDYSIYLDEQAAKEFVNWLLAGKGKKNWLKHNITQC-NH2 (lactam 16-20) [mt-207]			3.2	1.31	0.073	42.5	0.622	2.41
Y[Aib]EGTFTSDYSIYLDEQAAKEFVNWLLAGKGKKNWLKHNITQC-NH2 (lactam 16-20) [mt-206]			331	0.01	0.095		0.115	
Y[Aib]EGTFTSDYSIYLDEQAAKEFVNWLLAGGPSSGAPPPSC-NH2 (lactam 16-20; N-terminus assumed; SMILES CC[C@H](C)[C@H](NC(=O)[C@H](CO)NC(=O)[C@H](Cc1ccc(O)cc1)NC(=O)[C@H](CC(=O)O)NC(=O)[C@H](CO)NC(=O)[C@@H](NC(=O)[C@H](Cc1ccccc1)NC(=O)[C@@H](NC(=O)CNC(=O)[C@H](CCC(=O)O)NC(=O)C(C)(C)NC(=O)[C@@H](N)Cc1ccc(O)cc1)[C@@H](C)O)[C@@H](C)O)C(=O)N[C@@H](Cc1ccc(O)cc1)C(=O)N[C@@H](CC(C)C)C(=O)N[C@@H](CC(=O)O)C(=O)N[C@H]1CCC(=O)NCCCC[C@@H](C(=O)N[C@@H](CCC(=O)O)C(=O)N[C@@H](Cc2ccccc2)C(=O)N[C@H](C(=O)N[C@@H](CC(N)=O)C(=O)N[C@@H](Cc2c[nH]c3ccccc23)C(=O)N[C@@H](CC(C)C)C(=O)N[C@@H](CC(C)C)C(=O)N[C@@H](C)C(=O)NCC(=O)NCC(=O)N2CCC[C@H]2C(=O)N[C@@H](CO)C(=O)N[C@@H](CO)C(=O)NCC(=O)N[C@@H](C)C(=O)N2CCC[C@H]2C(=O)N2CCC[C@H]2C(=O)N2CCC[C@H]2C(=O)N[C@@H](CO)C(=O)N[C@@H](CS)C(N)=O)C(C)C)NC(=O)[C@H](C)NC(=O)[C@H](C)NC(=O)[C@H](CCC(N)=O)NC1=O) [mt-174]			57.5	0.06	0.017	118	0.023	95.7
Y[Aib]QGTFTSDYSIYLDEQAAKEFVC(PEG 40 kDa″)WLMNG-NH2 (lactam 16-20) [mt-186]			1.58	2.22	0.5	2.8	15.2	0.14
Y[Aib]QGTFISDYSIYLDEQAAKEFVNWLLAGGPSSGAPPPSC-NH2 (lactam 16-20) [mt-176]			0.141		8.69		0.055	
Y[Aib]EGTFTSDYSIYLDEQAAKEFVNWLLAGGPSSGAPPPSC([maleimide-PEG 40 kDa])-NH2 (lactam 16-20) [mt-178]			8.25	0.42	0.171	8.19	0.448	4.69
Y[Aib]QGTFTSDYSIYLDEQAAKEFVC(PEG 40 kDa)WLLAGGPSSGAPPPS-NH2 (lactam 16-20) [mt-175]			2.42	1.49	0.22	5.91	1.93	0.93
Y[Aib]EGTFTSDYSIYLDEQAAKEFVNWLLAGKGKKNWLKHNITQC(PEG 40 kDa″)-NH2 (lactam 16-20) [mt-208]			448	0.01	0.262		0.313	
[Aib]QGTFTSDYSIYLDEQAAKEFVNWLLAG-NH2 (lactam 15-19; N-terminus assumed; SMILES CC[C@H](C)[C@H](NC(=O)[C@H](CO)NC(=O)[C@H](Cc1ccc(O)cc1)NC(=O)[C@H](CC(=O)O)NC(=O)[C@H](CO)NC(=O)[C@@H](NC(=O)[C@H](Cc1ccccc1)NC(=O)[C@@H](NC(=O)CNC(=O)[C@H](CCC(N)=O)NC(=O)C(C)(C)N)[C@@H](C)O)[C@@H](C)O)C(=O)N[C@@H](Cc1ccc(O)cc1)C(=O)N[C@@H](CC(C)C)C(=O)N[C@@H](CC(=O)O)C(=O)N[C@H]1CCC(=O)NCCCC[C@@H](C(=O)N[C@@H](CCC(=O)O)C(=O)N[C@@H](Cc2ccccc2)C(=O)N[C@H](C(=O)N[C@@H](CC(N)=O)C(=O)N[C@@H](Cc2c[nH]c3ccccc23)C(=O)N[C@@H](CC(C)C)C(=O)N[C@@H](CC(C)C)C(=O)N[C@@H](C)C(=O)NCC(N)=O)C(C)C)NC(=O)[C@H](C)NC(=O)[C@H](C)NC(=O)[C@H](CCC(N)=O)NC1=O) [mt-198]			11.9	0.53	13.2	0.17	149	0.02
Y[Aib]QGTFTSDYSIYLDEEAVRLFVNWLLAGGPSSGAPPPS-NH2 (N-terminus assumed; SMILES CC[C@H](C)[C@H](NC(=O)[C@H](CO)NC(=O)[C@H](Cc1ccc(O)cc1)NC(=O)[C@H](CC(=O)O)NC(=O)[C@H](CO)NC(=O)[C@@H](NC(=O)[C@H](Cc1ccccc1)NC(=O)[C@@H](NC(=O)CNC(=O)[C@H](CCC(N)=O)NC(=O)C(C)(C)NC(=O)[C@@H](N)Cc1ccc(O)cc1)[C@@H](C)O)[C@@H](C)O)C(=O)N[C@@H](Cc1ccc(O)cc1)C(=O)N[C@@H](CC(C)C)C(=O)N[C@@H](CC(=O)O)C(=O)N[C@@H](CCC(=O)O)C(=O)N[C@@H](CCC(=O)O)C(=O)N[C@@H](C)C(=O)N[C@H](C(=O)N[C@@H](CCCNC(=N)N)C(=O)N[C@@H](CC(C)C)C(=O)N[C@@H](Cc1ccccc1)C(=O)N[C@H](C(=O)N[C@@H](CC(N)=O)C(=O)N[C@@H](Cc1c[nH]c2ccccc12)C(=O)N[C@@H](CC(C)C)C(=O)N[C@@H](CC(C)C)C(=O)N[C@@H](C)C(=O)NCC(=O)NCC(=O)N1CCC[C@H]1C(=O)N[C@@H](CO)C(=O)N[C@@H](CO)C(=O)NCC(=O)N[C@@H](C)C(=O)N1CCC[C@H]1C(=O)N1CCC[C@H]1C(=O)N1CCC[C@H]1C(=O)N[C@@H](CO)C(N)=O)C(C)C)C(C)C) [mt-201]			26.7	0.24	0.012	192	0.072	44.4

Reference: patent US20110166062A1 (INDIANA UNIVERSITY RESEARCH AND TECHNOLOGY, published 2011)
